Results reported in publication PMC7579404, “A Novel KPC Variant KPC-55 in Klebsiella pneumoniae ST307 of Reinforced Meropenem-Hydrolyzing Activity” (Frontiers in Microbiology, 2020).

How the values were obtained:
[1] = tested on: CC(C)(O/N=C(\C(=O)N[C@@H]1C(=O)N2C(C(=O)[O-])=C(C[n+]3ccccc3)CS[C@H]12)c1csc(N)n1)C(=O)O; test: purified protein; type: biochemical, Klebsiella pneumoniae; conditions: 50 mM morpholinepropanesulfonic acid pH 7.0, 50 mM NaCl, 100 mM sodium phosphate pH 7.0, 30°C
[2] = tested on: CC(C)(O/N=C(\C(=O)N[C@@H]1C(=O)N2C(C(=O)[O-])=C(C[n+]3ccccc3)CS[C@H]12)c1csc(N)n1)C(=O)O; test: purified protein; conditions: 50 mM morpholinepropanesulfonic acid pH 7.0, 50 mM NaCl, 100 mM sodium phosphate pH 7.0, 30°C

## KPC-2 (and its variant KPC-55 = KPC-2 Y264N) (Klebsiella pneumoniae)
[1]
  Km: 0.28 ± 0.09 µM
  kcat: 0.02 ± 0.003 s⁻¹
  kcat/Km: 70000 ± 20000 M⁻¹ s⁻¹

## KPC-2 (and its variant KPC-55 = KPC-2 Y264N) (Klebsiella pneumoniae; Y262N)
[2]
  Km: 0.40 ± 0.11 µM
  kcat: 0.2 s⁻¹
  kcat/Km: 450000 M⁻¹ s⁻¹
